Measurements from the Human Domainome abundance scans (Beltran et al. 2025).
± gives the uncertainty stated by the source.

B1: Protein C-ets-1, residues 55 to 135; numbered along this chain, P14921 (parent)
chain: GFTKEQQRLGIPKDPRQWTETHVRDWVMWAVNEFSLKGVDFQKFCMNGAALCALGKDCFLELAPDFVGDILWEHLEILQKE

Variants of: B1
Experiment: abundance fitness (aPCA) (normalised: wild type 0, dead -1); higher = more abundant; growth selection in yeast, the domain comes from the species named
Conditions: Homo sapiens

| Variant | abundance fitness |
| --- | --- |
| GFTKEQQRLGIPKDPRQWTETHARDWVMWAVNEFSLKGVDFQKFCMNGAALCALGKDCFLELAPDFVGDILWEHLEILQKE [V23A] | -0.631 ± 0.054 |
| GFTKEQQRLGIPKDPRQWTETHIRDWVMWAVNEFSLKGVDFQKFCMNGAALCALGKDCFLELAPDFVGDILWEHLEILQKE [V23I] | -0.438 ± 0.045 |
| GFTKEQQRLGIPKDPRQWTETHLRDWVMWAVNEFSLKGVDFQKFCMNGAALCALGKDCFLELAPDFVGDILWEHLEILQKE [V23L] | -0.728 ± 0.06 |
| GFTKEQQRLGIPKDPRQWTETHDRDWVMWAVNEFSLKGVDFQKFCMNGAALCALGKDCFLELAPDFVGDILWEHLEILQKE [V23D] | -0.906 ± 0.13 |
| GFTKEQQRLGIPKDPRQWTETHHRDWVMWAVNEFSLKGVDFQKFCMNGAALCALGKDCFLELAPDFVGDILWEHLEILQKE [V23H] | -0.838 ± 0.24 |
| GFTKEQQRLGIPKDPRQWTETHCRDWVMWAVNEFSLKGVDFQKFCMNGAALCALGKDCFLELAPDFVGDILWEHLEILQKE [V23C] | -0.559 ± 0.08 |
| GFTKEQQRLGIPKDPRQWTETHPRDWVMWAVNEFSLKGVDFQKFCMNGAALCALGKDCFLELAPDFVGDILWEHLEILQKE [V23P] | -0.985 ± 0.12 |
| GFTKEQQRLGIPKDPRQWTETHYRDWVMWAVNEFSLKGVDFQKFCMNGAALCALGKDCFLELAPDFVGDILWEHLEILQKE [V23Y] | -0.955 ± 0.2 |
| GFTKEQQRLGIPKDPRQWTETHRRDWVMWAVNEFSLKGVDFQKFCMNGAALCALGKDCFLELAPDFVGDILWEHLEILQKE [V23R] | -0.686 ± 0.059 |
| GFTKEQQRLGIPKDPRQWTETHQRDWVMWAVNEFSLKGVDFQKFCMNGAALCALGKDCFLELAPDFVGDILWEHLEILQKE [V23Q] | -0.909 ± 0.11 |
| GFTKEQQRLGIPKDPRQWTETHGRDWVMWAVNEFSLKGVDFQKFCMNGAALCALGKDCFLELAPDFVGDILWEHLEILQKE [V23G] | -0.967 ± 0.079 |
| GFTKEQQRLGIPKDPRQWTETHSRDWVMWAVNEFSLKGVDFQKFCMNGAALCALGKDCFLELAPDFVGDILWEHLEILQKE [V23S] | -0.48 ± 0.034 |
| GFTKEQQRLGIPKDPRQWTETHERDWVMWAVNEFSLKGVDFQKFCMNGAALCALGKDCFLELAPDFVGDILWEHLEILQKE [V23E] | -1.03 ± 0.26 |
| GFTKEQQRLGIPKDPRQWTETHNRDWVMWAVNEFSLKGVDFQKFCMNGAALCALGKDCFLELAPDFVGDILWEHLEILQKE [V23N] | -0.858 ± 0.24 |
| GFTKEQQRLGIPKDPRQWTETHKRDWVMWAVNEFSLKGVDFQKFCMNGAALCALGKDCFLELAPDFVGDILWEHLEILQKE [V23K] | -0.904 ± 0.2 |
| GFTKEQQRLGIPKDPRQWTETHMRDWVMWAVNEFSLKGVDFQKFCMNGAALCALGKDCFLELAPDFVGDILWEHLEILQKE [V23M] | -0.916 ± 0.13 |
| GFTKEQQRLGIPKDPRQWTETHTRDWVMWAVNEFSLKGVDFQKFCMNGAALCALGKDCFLELAPDFVGDILWEHLEILQKE [V23T] | -0.126 ± 0.05 |

| Variant | abundance fitness |
| --- | --- |
| GFTKEQQRLGIPKDPRQWTETHFRDWVMWAVNEFSLKGVDFQKFCMNGAALCALGKDCFLELAPDFVGDILWEHLEILQKE [V23F] | -0.857 ± 0.11 |
| GFTKEQQRLGIPKDPRQWTETHWRDWVMWAVNEFSLKGVDFQKFCMNGAALCALGKDCFLELAPDFVGDILWEHLEILQKE [V23W] | -0.822 ± 0.1 |
| GFTKEQQRLGIPKDPRQWTETYVRDWVMWAVNEFSLKGVDFQKFCMNGAALCALGKDCFLELAPDFVGDILWEHLEILQKE [H22Y] | -0.625 ± 0.15 |
| GFTKEQQRLGIPKDPRQWTETKVRDWVMWAVNEFSLKGVDFQKFCMNGAALCALGKDCFLELAPDFVGDILWEHLEILQKE [H22K] | -1.07 ± 0.27 |
| GFTKEQQRLGIPKDPRQWTETMVRDWVMWAVNEFSLKGVDFQKFCMNGAALCALGKDCFLELAPDFVGDILWEHLEILQKE [H22M] | -0.18 ± 0.034 |
| GFTKEQQRLGIPKDPRQWTETVVRDWVMWAVNEFSLKGVDFQKFCMNGAALCALGKDCFLELAPDFVGDILWEHLEILQKE [H22V] | -0.673 ± 0.054 |
| GFTKEQQRLGIPKDPRQWTETPVRDWVMWAVNEFSLKGVDFQKFCMNGAALCALGKDCFLELAPDFVGDILWEHLEILQKE [H22P] | -0.85 ± 0.11 |
| GFTKEQQRLGIPKDPRQWTETQVRDWVMWAVNEFSLKGVDFQKFCMNGAALCALGKDCFLELAPDFVGDILWEHLEILQKE [H22Q] | -0.063 ± 0.049 |
| GFTKEQQRLGIPKDPRQWTETRVRDWVMWAVNEFSLKGVDFQKFCMNGAALCALGKDCFLELAPDFVGDILWEHLEILQKE [H22R] | -0.818 ± 0.061 |
| GFTKEQQRLGIPKDPRQWTETSVRDWVMWAVNEFSLKGVDFQKFCMNGAALCALGKDCFLELAPDFVGDILWEHLEILQKE [H22S] | -0.472 ± 0.044 |
| GFTKEQQRLGIPKDPRQWTETTVRDWVMWAVNEFSLKGVDFQKFCMNGAALCALGKDCFLELAPDFVGDILWEHLEILQKE [H22T] | -0.528 ± 0.049 |
| GFTKEQQRLGIPKDPRQWTETLVRDWVMWAVNEFSLKGVDFQKFCMNGAALCALGKDCFLELAPDFVGDILWEHLEILQKE [H22L] | -0.687 ± 0.061 |
| GFTKEQQRLGIPKDPRQWTETNVRDWVMWAVNEFSLKGVDFQKFCMNGAALCALGKDCFLELAPDFVGDILWEHLEILQKE [H22N] | 0.023 ± 0.11 |
| GFTKEQQRLGIPKDPRQWTETWVRDWVMWAVNEFSLKGVDFQKFCMNGAALCALGKDCFLELAPDFVGDILWEHLEILQKE [H22W] | -0.904 ± 0.1 |
| GFTKEQQRLGIPKDPRQWTETHVPDWVMWAVNEFSLKGVDFQKFCMNGAALCALGKDCFLELAPDFVGDILWEHLEILQKE [R24P] | -1.03 ± 0.13 |
| GFTKEQQRLGIPKDPRQWTETHVIDWVMWAVNEFSLKGVDFQKFCMNGAALCALGKDCFLELAPDFVGDILWEHLEILQKE [R24I] | -0.133 ± 0.12 |
| GFTKEQQRLGIPKDPRQWTETHVDDWVMWAVNEFSLKGVDFQKFCMNGAALCALGKDCFLELAPDFVGDILWEHLEILQKE [R24D] | -0.827 ± 0.13 |
